According to US20190218277A1 (Chugai, published 2019):

What was measured:
human C1q (Calbiochem) = human C1q (Calbiochem) (human, UniProt P02745 23-245; P02746 28-253; P02747 29-245); assay: ELISA: antibody coated on the plate at the concentration shown, human C1q added, detected with HRP anti-human C1q, OD 450 nm
[1] = target: T1, Recombinant soluble E protein (0.8E-His) from DENV-1 (DENV-1, UniProt P27909 281-675)
T1 construct: also called DENV-1 E protein; DV1

[2] = target: T2, Recombinant soluble E protein (0.8E-His) from DENV-3 (DENV-3, UniProt P27915 281-673)
T2 construct: also called DENV-3 E protein; DV3

[3] = target: T3, Recombinant soluble E protein (0.8E-His) from DENV-4 (DENV-4, UniProt P09866 280-674)
T3 construct: also called DENV-4 E protein; DV4

[4] = target: T4, Recombinant soluble E protein (0.8E-His) from DENV-2 (DENV-2, UniProt P14340 281-675)
T4 construct: also called DENV-2 E protein; DV2

human C1q (Calbiochem), sequence (P02745 23-245 limits assumed, chain 1 of 3): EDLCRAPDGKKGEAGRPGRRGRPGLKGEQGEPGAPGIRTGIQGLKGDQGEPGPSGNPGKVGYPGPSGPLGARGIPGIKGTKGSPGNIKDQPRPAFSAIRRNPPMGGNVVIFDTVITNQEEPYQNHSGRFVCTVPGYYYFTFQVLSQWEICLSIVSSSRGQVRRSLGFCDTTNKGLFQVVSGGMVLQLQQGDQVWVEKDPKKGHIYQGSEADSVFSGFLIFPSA
human C1q (Calbiochem), sequence (P02746 28-253 limits assumed, chain 2 of 3): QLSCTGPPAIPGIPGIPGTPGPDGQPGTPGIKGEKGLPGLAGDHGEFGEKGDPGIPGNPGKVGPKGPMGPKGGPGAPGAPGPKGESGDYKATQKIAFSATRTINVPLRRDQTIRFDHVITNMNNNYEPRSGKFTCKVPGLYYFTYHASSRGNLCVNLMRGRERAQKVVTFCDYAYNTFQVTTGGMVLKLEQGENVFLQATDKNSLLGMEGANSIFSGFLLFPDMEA
human C1q (Calbiochem), sequence (P02747 29-245 limits assumed, chain 3 of 3): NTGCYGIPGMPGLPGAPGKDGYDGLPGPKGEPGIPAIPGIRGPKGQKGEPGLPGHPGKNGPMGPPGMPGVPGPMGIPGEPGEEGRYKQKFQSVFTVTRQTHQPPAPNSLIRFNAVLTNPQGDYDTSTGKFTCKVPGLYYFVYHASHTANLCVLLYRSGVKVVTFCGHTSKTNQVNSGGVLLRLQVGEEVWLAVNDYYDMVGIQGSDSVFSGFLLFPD

Binder	binding result (human C1q (Calbiochem))	Kd [1]	Kd [2]	Kd [3]	Kd [4]
Anti-CD154 antibody (SLAPH0336a/SLAPL0336a) with Fc variant LALA+KEES (SG1097) (antibody, human IgG1, kappa, L234A L235A) heavy: EVQLVESGGGSVKPGGSLKLSCAASGFTFSDHYMYWVRQTPEKRLEWVAIISGGGSYTSYPDSMKGRFTISRDNAKNILHLQMSSLKSEDTAMYYCTRESNGKPGFAYWGQGTLVTVSAASTKGPSVFPLAPSSKSTSGGTAALGCLVKDYFPEPVTVSWNSGALTSGVHTFPAVLQSSGLYSLSSVVTVPSSSLGTQTYICNVNHKPSNTKVDKRVEPKSCDKTHTCPPCPAPEAAGGPSVFLFPPKPKDTLMISRTPEVTCVVVDVSHEDPEVKFNWYVDGVEVHNAKTKPREEQYNSTYRVVSVLTVLHQDWLNGKEYKCKVSNEALPAPISKTISKAKGQPREPQVYTLPPSREEMTKNQVSLTCLVKGFYPSDIAVEWESNGQPENNYKTTPPVLDSDGSFFLYSKLTVDKSRWQQGNVFSCSVMHEALHNHYTQKSLSLSP light: not shown	binds	–	–	–	–
DG_3CH953-SG182/3CL499-SK1 (antibody, V domains shown) VH: QVQLVQSGPDVEKPGASVKVSCKASGYTFTSNYIHWVRQAPGQGLEWMGVINPRGGSRRSAQKFQGRITMTRDTSTSTVYMELSSLRSEDTAVYYCARGGRALFYDSYTTPFDGGSWWFDPWGQGSLVTVSS VL: DIQLTQSPSSLSASVGDRVTFTCQASQDIRKYLNWYQQKPGKAPKLLIYDASNLKFGVPSRFSGSGSGTDFTFTISSLQPEDVATYYCQQFDALPITFGQGTRLQIKR	–	1.46 nM	0.211 nM	5.99 nM	0.905 nM
DG_3CH-SG182/3CL563-SK1 (antibody, V domains shown) VH: QVQLVQSGPDVEKPGASVKVSCKASGYTFTSNYIHWVRQAPGQGLEWMGVINPRGGSTASAQKFQGRITMTRDTSTSTVYMELSSLRSDDTAVYYCARGGRALFYDSYTTPRDGGSWWFDPWGQGSLVTVSS VL: DIQLTQSPSSLSASVGDRVTFTCQASQDIRQYLNWYQQKPGKAPKLLIYDASNLKFGVPSRFSGSGSGTDFTFTISSLQPEDVATYYCQQFSALPITFGQGTRLQIKR	–	13.4 nM	3.52 nM	11.8 nM	4.43 nM
DG_3CH954-SG182/3CL-SK1 (antibody, V domains shown) VH: QVQLVQSGPDVEKPGASVKVSCKASGYTFTSNYIHWVRQAPGQGLEWMGVINPRGGSRRSAQKFQGRITMTRDTSTSTVYMELSSLRSEDTAVYYCARGGRALFYDSYTTPRDDGSWWFDPWGQGSLVTVSS VL: DIQLTQSPSSLSASVGDRVTFTCQASQDIRKYLNWYQQKPGKAPKLLIYDASNLKTGVPSRFSGSGSGTDFTFTISSLQPEDVATYYCQQFDDLPITFGQGTRLQIKR	–	0.887 nM	0.124 nM	4.35 nM	0.122 nM
DG_3CH955-SG182/3CL-SK1 (antibody, V domains shown) VH: QVQLVQSGPDVEKPGASVKVSCKASGYTFTSNYIHWVRQAPGQGLEWMGVINPRGGSRRSAQKFQGRITMTRDTSTSTVYMELSSLRSEDTAVYYCARGGRALFYDSYTTPRDLGSWWFDPWGQGSLVTVSS VL: DIQLTQSPSSLSASVGDRVTFTCQASQDIRKYLNWYQQKPGKAPKLLIYDASNLKTGVPSRFSGSGSGTDFTFTISSLQPEDVATYYCQQFDDLPITFGQGTRLQIKR	–	1.13 nM	0.205 nM	7.8 nM	0.794 nM
DG_3CH-SG182/3CL499-SK1 (antibody, V domains shown) VH: QVQLVQSGPDVEKPGASVKVSCKASGYTFTSNYIHWVRQAPGQGLEWMGVINPRGGSTASAQKFQGRITMTRDTSTSTVYMELSSLRSDDTAVYYCARGGRALFYDSYTTPRDGGSWWFDPWGQGSLVTVSS VL: DIQLTQSPSSLSASVGDRVTFTCQASQDIRKYLNWYQQKPGKAPKLLIYDASNLKFGVPSRFSGSGSGTDFTFTISSLQPEDVATYYCQQFDALPITFGQGTRLQIKR	–	11.1 nM	4.03 nM	8.35 nM	4.73 nM
